Source: patent US20060142192A1 (ZymoGenetics, published 2006)

Columns and labels:
Experiment in all cases: flow cytometry, biotinylated ligand + streptavidin-PE on stably transfected BHK cells
[1] = biological target: T1, human IL-17D (biotinylated) (human, UniProt Q8TAD2 18-202, limits assumed, biotin label (sites not given))
T1 sequence (looked up): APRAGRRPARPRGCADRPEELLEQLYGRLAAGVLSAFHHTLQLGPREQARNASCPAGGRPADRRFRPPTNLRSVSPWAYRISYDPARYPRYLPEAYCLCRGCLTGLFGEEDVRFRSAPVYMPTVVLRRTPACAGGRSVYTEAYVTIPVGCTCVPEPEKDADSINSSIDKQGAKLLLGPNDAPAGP

[2] = biological target: T2, human IL-17B (biotinylated) (human, UniProt Q9UHF5 21-180, biotin label (sites not given))
T2 sequence (looked up): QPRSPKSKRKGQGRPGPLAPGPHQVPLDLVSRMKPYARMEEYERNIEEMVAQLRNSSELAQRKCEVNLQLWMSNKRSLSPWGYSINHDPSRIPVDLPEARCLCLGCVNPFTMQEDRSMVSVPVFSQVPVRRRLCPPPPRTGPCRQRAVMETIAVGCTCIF

[3] = biological target: T3, human IL-17A (biotinylated) (human, UniProt Q16552 24-155, biotin label (sites not given))
T3 sequence (looked up): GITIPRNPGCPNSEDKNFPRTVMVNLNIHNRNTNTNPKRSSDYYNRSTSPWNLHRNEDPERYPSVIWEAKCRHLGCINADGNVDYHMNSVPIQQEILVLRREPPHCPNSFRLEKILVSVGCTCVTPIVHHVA

[4] = biological target: T4, human IL-17F (biotinylated) (human, UniProt Q96PD4 31-163, biotin label (sites not given))
T4 sequence (looked up): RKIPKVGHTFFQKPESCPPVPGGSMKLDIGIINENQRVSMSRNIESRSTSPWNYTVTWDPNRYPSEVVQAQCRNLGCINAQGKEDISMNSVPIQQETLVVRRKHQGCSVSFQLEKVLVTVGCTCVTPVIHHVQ

- binding result [1]: no binding
- binding result [2]: no binding
- binding result [3]: no binding
- binding result [4]: no binding
B1: human ZcytoR21x3 (receptor)
chain: AGIGFRHLPHWNTRCPLASHTVFNGASSTSWCRNPKSLPHSSSIGDTRCQHLLRGSCCLVVTCLRRAITFPSPPQTSPTRDFALKGPNLRIQRHGKVFPDWTHKGPEFSFDLLPEARAIRVTISSGPEVSVRLCHQWALECEELSSPYDVQKIVSGGHTVELPYEFLLPCLCIEASYLQEDTVRRKKCPFQSWPEAYGSDFWKSVHFTDYSQHTQMVMALTLRCPLKLEAALCQRHDWHTLCKDLPNATARESDGWYVLEKVDLHPQLCFKFSFGNSSHVECPHQTGITEARDWPSHIQVSCSPGVPIREPQTSNCLWFVRNEATQQEARGSSPVSLDLIIPFLRPGCCVLVWRSDVQFAWKHLLCPDVSYRHLGLLILALLALLTLLGVVLALTCRRPQSGPGPARPVLLLHAADSEAQRRLVGALAELLRAALGGGRDVIVDLWEGRHVARVGPLPWLWAARTRVAREQGTVLLLWSGADLRPVSGPDPRAAPLLALLHAAPRPLLLLAYFSRLCAKGDIPPPLRALPRYRLLRDLPRLLRALDARPFAEATSWGRLGARQRRQSRLELCSRLEREAARLADLG
notes: also called hcytor21x3
